Assay results: US20220033522A1 (Janssen / Centocor, published 2022)
Where two headings read alike, the source gives them in different places.

How the values were obtained:
[1] = target: T1, biotinylated SARS-CoV-2 spike glycoprotein (SARS-CoV-2, UniProt P0DTC2 16-1213)
[2] = target: T1, biotinylated SARS-CoV-2 spike …; remark: listed apart in the source
[3] = target: T2, polymeric immunoglobulin receptor (pIgR), his-tagged (human, UniProt P01833 19-638); test: BLI (Octet): his-tagged pIgR on anti-His (HIS2) biosensors, protein in solution at 10 µg/mL, 90 s association, 90 s dissociation
T2 sequence (P01833 19-638 limits assumed): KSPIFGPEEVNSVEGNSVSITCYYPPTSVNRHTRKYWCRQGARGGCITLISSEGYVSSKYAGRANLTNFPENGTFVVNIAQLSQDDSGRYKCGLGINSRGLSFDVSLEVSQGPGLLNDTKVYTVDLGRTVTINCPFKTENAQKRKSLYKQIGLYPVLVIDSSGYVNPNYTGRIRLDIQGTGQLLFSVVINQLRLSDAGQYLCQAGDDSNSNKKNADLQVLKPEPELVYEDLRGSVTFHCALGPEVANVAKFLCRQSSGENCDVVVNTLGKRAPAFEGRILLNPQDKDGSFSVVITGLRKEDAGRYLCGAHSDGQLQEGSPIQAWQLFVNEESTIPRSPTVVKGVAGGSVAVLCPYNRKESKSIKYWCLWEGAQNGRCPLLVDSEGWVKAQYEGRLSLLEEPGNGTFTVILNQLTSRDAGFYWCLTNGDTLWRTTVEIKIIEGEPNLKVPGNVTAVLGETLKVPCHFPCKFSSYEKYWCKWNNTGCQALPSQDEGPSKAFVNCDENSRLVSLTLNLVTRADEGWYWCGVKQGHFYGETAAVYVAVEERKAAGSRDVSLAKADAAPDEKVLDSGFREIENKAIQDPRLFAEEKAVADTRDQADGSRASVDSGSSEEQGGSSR

[4] = target: T3, SARS-CoV-2 spike glycoprotein (his-tagged SARS-CoV-2 RBD) (SARS-CoV-2, UniProt P0DTC2 319-541); test: BLI (Octet), his-tagged SARS-CoV-2 RBD on anti-His biosensor
T3 construct: domain: RBD; also called COVID-19 RBD; wild-type spike glycoprotein

[5] = target: T2, polymeric immunoglobulin receptor …; test: BLI (Octet), his-tagged pIgR on anti-His biosensor

B1: D001 (antibody, V domains shown)
VH: QVQLQQSGPELMKPGASVKISCKASGYSFTNYYIHWVKQSHGKSLEWIGYIDPFNGGTSDNLKFKGAATLTVDKSSSTAYMHLSSLTSEDSAVYYCARSEYDPYYVMDYWGQGTSVTVSS
VL: EIVLTQSPDTLSVTPGDSVSLSCRASQSISSNLHWYQQKSHESPRLLIKYASQSISGIPSRFSGSGSGTDFTLSINSVETEDFGIYFCQQTNFWPYTFGGGTKLEIKR
notes: also called Sino Biological cat. #40150-D001
IC50 [1]: 0.299 nM | IC50 [2]: 0.2 nM | binding result [3]: no binding (tested: 10 µg/mL) | Kd [4]: 15 nM | koff [4]: 1.1e-05 s⁻¹

B2: SAD-S35 (antibody, human IgG1, kappa, V domains shown)
VH: QVQLVESGGGLVQPGGSLRLSCAASGITVSSNYMSWVRQAPGKGLEWVSVIYSGGSTYYADSVKGRFSISRDNSKNTLYLQMNSLRAEDTAVYYCARDLQERGGMDVWGQGTTVTVSS
VL: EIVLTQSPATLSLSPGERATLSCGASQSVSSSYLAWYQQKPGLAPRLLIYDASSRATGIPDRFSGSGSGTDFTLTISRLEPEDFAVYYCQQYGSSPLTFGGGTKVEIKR
notes: also called Acro Biosystems cat. #SAD-S35
IC50 [1]: 0.323 nM | Kd [4]: 14.3 nM | Relative Kd (compared to CR3022) [4]: 12 | koff [4]: 8.91e-06 s⁻¹

B3: CR3022 (antibody)
heavy: not shown
light: […]
binding result [5]: no binding (tested: 10 µg/mL)
